Key:
hiR2-FL-S537E-T7 = target: T1, hiR2-FL-S537E-T7 (human, UniProt Q6PJF5 1-856); assay: FACS on MEF-DKO cells
T1 sequence: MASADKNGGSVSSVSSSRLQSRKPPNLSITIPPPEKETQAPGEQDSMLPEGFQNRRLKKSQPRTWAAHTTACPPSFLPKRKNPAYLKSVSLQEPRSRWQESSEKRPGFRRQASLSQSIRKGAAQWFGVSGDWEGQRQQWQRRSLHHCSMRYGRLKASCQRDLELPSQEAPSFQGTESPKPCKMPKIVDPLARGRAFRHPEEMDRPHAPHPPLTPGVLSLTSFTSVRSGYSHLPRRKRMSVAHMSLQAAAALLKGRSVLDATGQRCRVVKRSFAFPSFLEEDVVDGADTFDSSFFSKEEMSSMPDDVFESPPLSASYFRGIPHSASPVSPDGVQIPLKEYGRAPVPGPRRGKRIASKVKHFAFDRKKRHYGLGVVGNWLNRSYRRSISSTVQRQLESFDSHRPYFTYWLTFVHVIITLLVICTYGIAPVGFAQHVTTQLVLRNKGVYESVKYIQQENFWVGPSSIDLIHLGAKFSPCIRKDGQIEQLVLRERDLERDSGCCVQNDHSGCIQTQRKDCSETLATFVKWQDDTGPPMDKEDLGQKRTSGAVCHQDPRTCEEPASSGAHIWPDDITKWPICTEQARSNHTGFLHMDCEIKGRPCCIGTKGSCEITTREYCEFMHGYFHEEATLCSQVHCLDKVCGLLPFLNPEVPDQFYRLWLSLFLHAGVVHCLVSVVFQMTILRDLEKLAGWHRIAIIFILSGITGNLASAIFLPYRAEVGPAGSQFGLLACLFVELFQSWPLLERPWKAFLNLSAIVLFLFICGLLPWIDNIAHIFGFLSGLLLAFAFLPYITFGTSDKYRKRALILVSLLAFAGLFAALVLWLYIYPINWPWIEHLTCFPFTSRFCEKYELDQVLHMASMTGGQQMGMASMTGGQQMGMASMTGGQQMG

hiR2-FL-WT-FLAG = target: T2, hiR2-FL-WT-FLAG (human, UniProt Q6PJF5 1-856); assay: FACS, MEF-DKO-hiR2-FL-WT-FLAG cells, 3 µg/ml
T2 construct: on MEF-DKO cells
T2 sequence: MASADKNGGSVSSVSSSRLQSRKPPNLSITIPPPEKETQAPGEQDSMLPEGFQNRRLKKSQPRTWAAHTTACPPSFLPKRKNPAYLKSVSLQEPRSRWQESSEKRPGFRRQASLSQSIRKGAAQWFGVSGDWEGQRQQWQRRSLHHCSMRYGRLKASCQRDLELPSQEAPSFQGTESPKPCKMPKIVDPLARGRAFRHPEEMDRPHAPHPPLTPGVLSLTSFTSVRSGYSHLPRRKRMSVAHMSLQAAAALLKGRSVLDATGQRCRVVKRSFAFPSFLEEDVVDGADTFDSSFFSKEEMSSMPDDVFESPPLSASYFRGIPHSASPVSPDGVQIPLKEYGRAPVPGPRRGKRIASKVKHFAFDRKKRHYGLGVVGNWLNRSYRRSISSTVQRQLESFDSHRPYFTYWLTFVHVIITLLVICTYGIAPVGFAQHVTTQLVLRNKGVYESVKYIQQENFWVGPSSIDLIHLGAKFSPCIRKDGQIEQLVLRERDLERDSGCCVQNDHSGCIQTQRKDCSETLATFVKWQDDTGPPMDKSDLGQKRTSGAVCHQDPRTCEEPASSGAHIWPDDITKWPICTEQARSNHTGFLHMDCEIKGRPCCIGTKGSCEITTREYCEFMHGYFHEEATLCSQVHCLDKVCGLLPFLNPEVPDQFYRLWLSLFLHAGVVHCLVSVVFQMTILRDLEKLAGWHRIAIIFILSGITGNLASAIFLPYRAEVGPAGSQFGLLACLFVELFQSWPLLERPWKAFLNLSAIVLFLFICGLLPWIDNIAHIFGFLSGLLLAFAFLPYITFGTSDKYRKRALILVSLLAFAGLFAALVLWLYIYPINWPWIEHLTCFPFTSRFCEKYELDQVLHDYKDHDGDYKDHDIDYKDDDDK
Method: In brief, immortalized MEF-DKO-EV control cells, MEF-DKO-hiR2-FL-WT-FLAG cells and MEF-DKO-miR2-FL-WT-FLAG cells were harvested with 10 mM EDTA in PBS, washed and resuspended in FACS buffer (PBS, 3% FBS, 0.05% sodium azide), and seeded in Nunc U-bottom 96-well plates (Thermo Fisher Scientific, USA) at approximately 3×10⁵ cells per well. To pellet cells and remove supernatants, the plates were centrifuged at 1,500 rpm and 4° C. for 3 minutes. For primary staining, cells were resuspended in 100 μl per well of either FACS buffer alone (controls), mouse monoclonal anti-FLAG IgG (Sigma-Aldrich, USA) at 3 μg/ml FACS buffer or the antibodies of the invention also at 3 μg/ml FACS buffer and incubated on ice for 1 hour. Afterwards, plates were centrifuged at 1,500 rpm and 4° C. for 3 minutes and washed twice with 200 μl per well of FACS buffer. For secondary staining, cells were spun down and resuspended in 100 μl per well of PE-conjugated goat anti-mouse IgG F(ab′)2 detection fragment (Dianova, Germany) diluted 1:100 in FACS buffer. Protected from light, the cell suspensions were incubated on ice for 1 hour. Plates were then centrifuged at 1,500 rpm and 4° C. for 3 minutes and washed three times with 200 μl per well of FACS buffer. Finally, cells were resuspended in 150 μl per well of FACS buffer and analyzed using a BD Accuri™ C6 Plus flow cytometer (Becton Dickinson, Germany).

B1: antibody 34 (antibody, V domains shown)
VH: QVTLKESGPGILQPSQTLSLTCSFSGFSLSTFSLGVGWIRQSSGKGLEWLAHIWWDDEKYYNPALKSRLTISKDTSKNQVFLKIANVDAADTATYYCARAYYSKSYYALDYWGQGTSVTVSS
VL: DIQMTQSPSSLSASLGERVSLTCRASQEISGYLSWLQQKPDGTIKRLIYAASTLDSGVPKRFSGSRSGSDYSLAISSLESEDFADYYCLQYANFPFTFGSGTKLEIK
notes: mouse IgG, kappa light chain; also called clone #34; purified antibody 34
hiR2-FL-S537E-T7
  binding result: no binding (tested: 3 µg/ml)

B2: antibody 5 (antibody, V domains shown)
VH: QVTLKESGPGILQPSQTLSLTCSFSGFSLSTFGMGVGWIRQPSGKGLEWLAHIWWDDEKYYNSALKSRLTISKATSKNQAFLKIANVDTADTATYYCARISNYGSNYWYFNVWGTGTTVTVSS
VL: QVVLTQSPALMSASPGEKVTMTCSAGSSVSCMYWYQQKPGSSPRVLIYDTSNLASGVPARFTGSGSGTSYSLTISRMEAEDAASYYCQQWNSYPLTFGAGTKLELK
notes: mouse IgG, kappa light chain; also called clone #5; purified antibody 5
hiR2-FL-S537E-T7
  binding result: no binding (tested: 3 µg/ml)

B3: antibody 47 (antibody, V domains shown)
VH: QVQLQQSGAELVRPGTSVKVSCKASGYAFTNYLIEWVKQRPGQGLEWIGVINPGSGFTNYNEKFKGKAILNADKSSSTAYMQLISLTSEDSAVYFCARDLKRAMDHWGQGTSVTVSS
VL: DIQMTQSPASQSASLGESVTITCLASQTIGTWLAWYQQKPGKSPQLLIHAATSLADGVPSRFSGSGSGTKFSFKISSLQAEDFVSYYCQQIYSSPYTFGGGTKLEIK
notes: mouse IgG, kappa light chain; also called clone #47
hiR2-FL-WT-FLAG
  binding result: binds

B4: antibody 51 (antibody, V domains shown)
VH: QVQLQQSGAELVKPGASVKISCKASGYTFSNYWMNWVKQRPGKGLEWIGQIYPGDGDTKYNGKFKNKATLTADKSSSTAYMQFSSLTSEDSAVYFCARGDLVFVYWGLGTLVTVSA
VL: DVQITQSPSYLAVSPGETITINCRASKNIRKYLAWYQEKPGKTNKLLIYSGSTSQSGVPSRFSGSGSGTDFTLTISSLEPEDFAMYYCQQHNEYPYTFGGGTKLEIK
notes: mouse IgG, kappa light chain; also called clone #51
hiR2-FL-WT-FLAG
  binding result: binds
